Key:
Test in all cases: holdup assay
Parameters in all cases: key: below the threshold = too weak to quantify, mostly under pKd 3.1 to 4
[1] = target: T1, APBA2_2, Q99767
T1 sequence (Q99767 654-744, limits assumed, looked up): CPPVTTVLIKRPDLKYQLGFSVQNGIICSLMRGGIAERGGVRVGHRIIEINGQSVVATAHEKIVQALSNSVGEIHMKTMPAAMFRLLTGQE

[2] = target: T2, ARHGEF11, O15085
T2 sequence (O15085 42-136, limits assumed, looked up): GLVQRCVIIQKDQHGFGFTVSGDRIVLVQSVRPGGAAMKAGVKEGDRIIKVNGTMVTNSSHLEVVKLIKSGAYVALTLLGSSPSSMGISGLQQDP

[3] = target: T3, DFNB31_2, Q9P202
T3 sequence (Q9P202 274-371, limits assumed, looked up): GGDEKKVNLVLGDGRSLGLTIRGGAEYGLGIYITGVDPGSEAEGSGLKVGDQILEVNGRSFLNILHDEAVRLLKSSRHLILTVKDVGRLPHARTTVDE

[4] = target: T4, DFNB31_3, Q9P202
T4 sequence (Q9P202 811-907, limits assumed, looked up): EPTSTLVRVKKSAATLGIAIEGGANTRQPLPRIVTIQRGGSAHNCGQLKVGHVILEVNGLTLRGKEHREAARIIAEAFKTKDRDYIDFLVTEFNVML

[5] = target: DLG1_3, Q12959
Chain of DLG1_3, Q12959 (Q12959 457-571): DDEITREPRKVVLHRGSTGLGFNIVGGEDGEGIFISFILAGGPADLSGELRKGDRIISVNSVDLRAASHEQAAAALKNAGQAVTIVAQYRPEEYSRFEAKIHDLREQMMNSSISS

[6] = target: GOPC, Q9HD26
[7] = target: GORASP2, Q9H8Y8
[8] = target: GRID2IP_2, A4D2P6
Chain of GRID2IP_2, A4D2P6 (A4D2P6 272-370): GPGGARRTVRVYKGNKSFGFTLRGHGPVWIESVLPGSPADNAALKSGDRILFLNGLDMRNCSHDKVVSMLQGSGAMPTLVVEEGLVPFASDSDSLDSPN

[9] = target: GRIP2_4, Q9C0E4
Chain of GRIP2_4, Q9C0E4 (Q9C0E4 446-548): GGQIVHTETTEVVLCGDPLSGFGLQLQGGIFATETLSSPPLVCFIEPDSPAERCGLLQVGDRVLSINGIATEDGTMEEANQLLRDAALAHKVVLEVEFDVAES

[10] = target: GRIP2_5, Q9C0E4
Chain of GRIP2_5, Q9C0E4 (Q9C0E4 544-642): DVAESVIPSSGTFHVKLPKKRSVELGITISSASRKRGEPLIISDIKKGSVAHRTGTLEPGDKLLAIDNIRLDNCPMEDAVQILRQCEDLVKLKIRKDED

[11] = target: HTRA1, Q92743
Chain of HTRA1, Q92743 (Q92743 360-477): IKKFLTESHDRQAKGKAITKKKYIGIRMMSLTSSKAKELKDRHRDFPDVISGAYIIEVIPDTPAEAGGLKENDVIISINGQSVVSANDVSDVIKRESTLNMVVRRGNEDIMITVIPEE

[12] = target: HTRA2, O43464
Chain of HTRA2, O43464 (O43464 355-458): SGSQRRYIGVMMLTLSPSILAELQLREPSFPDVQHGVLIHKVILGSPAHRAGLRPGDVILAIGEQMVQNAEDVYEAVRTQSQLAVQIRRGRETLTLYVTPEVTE

[13] = target: T5, HTRA3, P83110
T5 sequence (P83110 354-453, limits assumed, looked up): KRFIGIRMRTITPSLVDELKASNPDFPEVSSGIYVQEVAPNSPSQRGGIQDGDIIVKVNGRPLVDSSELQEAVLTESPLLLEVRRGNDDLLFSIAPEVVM

[14] = target: IL16_3, Q14005
Chain of IL16_3, Q14005 (Q14005 1107-1207): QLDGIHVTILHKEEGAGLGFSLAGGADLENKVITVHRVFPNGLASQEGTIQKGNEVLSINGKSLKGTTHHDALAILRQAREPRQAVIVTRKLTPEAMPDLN

[15] = target: Inadl_1, Q8NI35
Chain of Inadl_1, Q8NI35 (Q8NI35 113-229): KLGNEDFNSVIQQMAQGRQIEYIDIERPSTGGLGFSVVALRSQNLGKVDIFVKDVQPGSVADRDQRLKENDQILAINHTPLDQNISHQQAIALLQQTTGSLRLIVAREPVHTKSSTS

[16] = target: Inadl_4, Q8NI35
Chain of Inadl_4, Q8NI35 (Q8NI35 547-651): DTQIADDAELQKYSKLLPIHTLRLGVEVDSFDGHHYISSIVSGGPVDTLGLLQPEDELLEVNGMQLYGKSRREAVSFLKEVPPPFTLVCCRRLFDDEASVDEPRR

[17] = target: Inadl_5, Q8NI35
Chain of Inadl_5, Q8NI35 (Q8NI35 673-780): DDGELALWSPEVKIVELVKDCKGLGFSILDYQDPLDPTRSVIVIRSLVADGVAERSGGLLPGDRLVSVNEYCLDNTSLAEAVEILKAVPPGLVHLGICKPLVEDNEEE

[18] = target: Inadl_9, Q8NI35
Chain of Inadl_9, Q8NI35 (Q8NI35 1530-1615): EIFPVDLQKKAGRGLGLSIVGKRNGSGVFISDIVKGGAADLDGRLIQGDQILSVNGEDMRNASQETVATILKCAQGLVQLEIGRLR

[19] = target: T6, LNX2_2, Q8N448
T6 sequence (Q8N448 334-432, limits assumed, looked up): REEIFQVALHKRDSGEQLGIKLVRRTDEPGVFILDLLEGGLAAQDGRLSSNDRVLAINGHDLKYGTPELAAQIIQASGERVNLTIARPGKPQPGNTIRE

[20] = target: T7, LNX2_3, Q8N448
T7 sequence (Q8N448 463-564, limits assumed, looked up): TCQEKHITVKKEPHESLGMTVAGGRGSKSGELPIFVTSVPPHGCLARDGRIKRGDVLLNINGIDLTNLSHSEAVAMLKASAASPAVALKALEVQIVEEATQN

[21] = target: MAGI1_1, Q96QZ7
Chain of MAGI1_1, Q96QZ7 (Q96QZ7 1-106): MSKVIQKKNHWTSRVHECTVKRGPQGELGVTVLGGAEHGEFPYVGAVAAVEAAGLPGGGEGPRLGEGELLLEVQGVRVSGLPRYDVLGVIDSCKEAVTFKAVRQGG

[22] = target: MAGI3_2, Q5TCQ9
Chain of MAGI3_2, Q5TCQ9 (Q5TCQ9 398-503): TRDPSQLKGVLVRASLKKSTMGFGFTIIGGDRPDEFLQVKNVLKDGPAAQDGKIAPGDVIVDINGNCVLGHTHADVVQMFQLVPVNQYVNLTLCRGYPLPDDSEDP

[23] = target: MAST1, Q9Y2H9
Chain of MAST1, Q9Y2H9 (Q9Y2H9 962-1065): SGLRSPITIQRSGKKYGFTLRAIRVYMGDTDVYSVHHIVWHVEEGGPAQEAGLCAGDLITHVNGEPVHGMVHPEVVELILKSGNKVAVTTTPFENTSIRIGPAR

[24] = target: T8, MPDZ_10, O75970
T8 sequence (O75970 1624-1722, limits assumed, looked up): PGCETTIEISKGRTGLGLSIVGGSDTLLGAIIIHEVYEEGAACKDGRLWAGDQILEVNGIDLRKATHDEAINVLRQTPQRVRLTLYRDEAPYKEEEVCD

[25] = target: T9, NHERF3_3, Q5T2W1
T9 sequence (Q5T2W1 238-333, limits assumed, looked up): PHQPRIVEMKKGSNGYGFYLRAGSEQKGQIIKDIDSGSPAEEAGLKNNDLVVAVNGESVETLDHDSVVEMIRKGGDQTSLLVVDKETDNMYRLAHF

[26] = target: PICK1, Q9NRD5
Chain of PICK1, Q9NRD5 (Q9NRD5 17-115): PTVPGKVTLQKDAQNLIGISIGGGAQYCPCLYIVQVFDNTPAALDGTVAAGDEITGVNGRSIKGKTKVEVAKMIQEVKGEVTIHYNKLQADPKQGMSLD

[27] = target: SNX27, Q96L92
[28] = target: TJP1_2, Q07157
Chain of TJP1_2, Q07157 (Q07157 181-274): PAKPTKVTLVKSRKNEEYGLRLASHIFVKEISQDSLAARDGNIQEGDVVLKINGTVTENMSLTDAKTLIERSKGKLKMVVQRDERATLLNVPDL

[29] = target: TJP1_3, Q07157
Chain of TJP1_3, Q07157 (Q07157 416-512): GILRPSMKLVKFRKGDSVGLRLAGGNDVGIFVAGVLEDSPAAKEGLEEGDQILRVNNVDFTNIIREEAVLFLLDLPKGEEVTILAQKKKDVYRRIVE

[30] = plain residues with an end cap or a label only (N-terminal biotin on a linker: ttds)
[31] = plain residues with an end cap or a label only (N-terminal biotin on a linker: ado-ado)
[32] = plain residues with an end cap or a label only (N-terminal biotin on a linker: ahx)

B1: DGKK, Q5KSL6 (peptide)
chain: DPLTPSRSQL
Question: What does the source list for B1?
Answer: pKd [1, 30]: below the threshold; pKd [2, 30]: below the threshold; pKd [3, 30]: below the threshold; pKd [4, 30]: below the threshold; pKd [5, 30]: below the threshold; pKd [6, 30]: below the threshold; pKd [7, 30]: 4.21; pKd [8, 30]: 4.1; pKd [9, 30]: below the threshold; pKd [10, 30]: below the threshold; pKd [11, 30]: below the threshold; pKd [12, 30]: below the threshold; pKd [13, 30]: below the threshold; pKd [14, 30]: below the threshold; pKd [15, 30]: below the threshold; pKd [16, 30]: below the threshold; pKd [17, 30]: below the threshold; pKd [18, 30]: below the threshold; pKd [19, 30]: below the threshold; pKd [20, 30]: below the threshold; pKd [21, 30]: below the threshold; pKd [22, 30]: 3.55; pKd [23, 30]: 4.16; pKd [24, 30]: below the threshold; pKd [25, 30]: below the threshold; pKd [26, 30]: below the threshold; pKd [27, 30]: below the threshold; pKd [28, 30]: below the threshold; pKd [29, 30]: below the threshold

B2: NRXN3_rs746444206, Q9Y4C0 (peptide)
chain: QKNKDKEYYV
Question: Which pKd [1, 31] does the source give for B2 here?
Answer: below the threshold

Question: What about the pKd [2, 31] of the same binder?
Answer: 3.95

Question: What about the pKd [3, 31] of the same binder?
Answer: below the threshold

Question: And the pKd [4, 31]?
Answer: 3.82

Question: What about the pKd [5, 31] of the same binder?
Answer: below the threshold

Question: What about the pKd [6, 31] of the same binder?
Answer: below the threshold

Question: And the pKd [7, 31]?
Answer: 4.47

Question: What about the pKd [8, 31] of the same binder?
Answer: below the threshold

Question: What about the pKd [9, 31] of the same binder?
Answer: below the threshold

Question: What about the pKd [10, 31] of the same binder?
Answer: below the threshold

Question: What about the pKd [11, 31] of the same binder?
Answer: 5.32

Question: What about the pKd [12, 31] of the same binder?
Answer: 3.51

Question: What about the pKd [13, 31] of the same binder?
Answer: 4.64

Question: And the pKd [14, 31]?
Answer: below the threshold

Question: What about the pKd [15, 31] of the same binder?
Answer: 3.51

Question: And the pKd [16, 31]?
Answer: below the threshold

Question: What about the pKd [17, 31] of the same binder?
Answer: 4.55

Question: What about the pKd [18, 31] of the same binder?
Answer: 4.41

Question: And the pKd [19, 31]?
Answer: 4.7

Question: What about the pKd [20, 31] of the same binder?
Answer: below the threshold

Question: And the pKd [21, 31]?
Answer: below the threshold

Question: What about the pKd [22, 31] of the same binder?
Answer: 4.63

Question: What about the pKd [23, 31] of the same binder?
Answer: below the threshold

Question: And the pKd [24, 31]?
Answer: below the threshold

Question: And the pKd [25, 31]?
Answer: below the threshold

Question: And the pKd [26, 31]?
Answer: below the threshold

Question: What about the pKd [27, 31] of the same binder?
Answer: below the threshold

Question: What about the pKd [28, 31] of the same binder?
Answer: below the threshold

Question: What about the pKd [29, 31] of the same binder?
Answer: below the threshold

B3: APC, P25054 (peptide)
chain: HSGSYLVTSV
Question: What does the source list for B3?
Answer: pKd [1, 32]: below the threshold; pKd [2, 32]: 4.59; pKd [3, 32]: below the threshold; pKd [4, 32]: 3.67; pKd [5, 32]: 4.88; pKd [6, 32]: 4.3; pKd [7, 32]: 4.41; pKd [8, 32]: 4.41; pKd [9, 32]: below the threshold; pKd [10, 32]: below the threshold; pKd [11, 32]: 4.2; pKd [12, 32]: below the threshold; pKd [13, 32]: below the threshold; pKd [14, 32]: below the threshold; pKd [15, 32]: below the threshold; pKd [16, 32]: below the threshold; pKd [17, 32]: below the threshold; pKd [18, 32]: below the threshold; pKd [19, 32]: 4.56; pKd [20, 32]: below the threshold; pKd [21, 32]: below the threshold; pKd [22, 32]: 4.53; pKd [23, 32]: 4.22; pKd [24, 32]: 4.06; pKd [25, 32]: below the threshold; pKd [26, 32]: below the threshold; pKd [27, 32]: 5.52; pKd [28, 32]: below the threshold; pKd [29, 32]: below the threshold

— publication PMC9482650, “Quantitative fragmentomics allow affinity mapping of interactomes” (Nature Communications, 2022)
